Results taken from patent US11965039B2, “Compstatin analogues and their medical uses” (priority 2018, dated 2024).
Positions of bridges follow the written chain, without caps; N, C: chain ends. Non-standard residues stand in square brackets, D forms with d. Trp(1-Me) = Cn1cc(C[C@H](N)C(=O)O)c2ccccc21; Sar = CNCC(=O)O

Target: Human C3 (Complement tech cat #A113c) (human, UniProt P01024 23-1663)
Experiment: cell-based or functional assay

Chain of Human C3 (Complement tech cat #A113c) (P01024 23-1663 limits assumed): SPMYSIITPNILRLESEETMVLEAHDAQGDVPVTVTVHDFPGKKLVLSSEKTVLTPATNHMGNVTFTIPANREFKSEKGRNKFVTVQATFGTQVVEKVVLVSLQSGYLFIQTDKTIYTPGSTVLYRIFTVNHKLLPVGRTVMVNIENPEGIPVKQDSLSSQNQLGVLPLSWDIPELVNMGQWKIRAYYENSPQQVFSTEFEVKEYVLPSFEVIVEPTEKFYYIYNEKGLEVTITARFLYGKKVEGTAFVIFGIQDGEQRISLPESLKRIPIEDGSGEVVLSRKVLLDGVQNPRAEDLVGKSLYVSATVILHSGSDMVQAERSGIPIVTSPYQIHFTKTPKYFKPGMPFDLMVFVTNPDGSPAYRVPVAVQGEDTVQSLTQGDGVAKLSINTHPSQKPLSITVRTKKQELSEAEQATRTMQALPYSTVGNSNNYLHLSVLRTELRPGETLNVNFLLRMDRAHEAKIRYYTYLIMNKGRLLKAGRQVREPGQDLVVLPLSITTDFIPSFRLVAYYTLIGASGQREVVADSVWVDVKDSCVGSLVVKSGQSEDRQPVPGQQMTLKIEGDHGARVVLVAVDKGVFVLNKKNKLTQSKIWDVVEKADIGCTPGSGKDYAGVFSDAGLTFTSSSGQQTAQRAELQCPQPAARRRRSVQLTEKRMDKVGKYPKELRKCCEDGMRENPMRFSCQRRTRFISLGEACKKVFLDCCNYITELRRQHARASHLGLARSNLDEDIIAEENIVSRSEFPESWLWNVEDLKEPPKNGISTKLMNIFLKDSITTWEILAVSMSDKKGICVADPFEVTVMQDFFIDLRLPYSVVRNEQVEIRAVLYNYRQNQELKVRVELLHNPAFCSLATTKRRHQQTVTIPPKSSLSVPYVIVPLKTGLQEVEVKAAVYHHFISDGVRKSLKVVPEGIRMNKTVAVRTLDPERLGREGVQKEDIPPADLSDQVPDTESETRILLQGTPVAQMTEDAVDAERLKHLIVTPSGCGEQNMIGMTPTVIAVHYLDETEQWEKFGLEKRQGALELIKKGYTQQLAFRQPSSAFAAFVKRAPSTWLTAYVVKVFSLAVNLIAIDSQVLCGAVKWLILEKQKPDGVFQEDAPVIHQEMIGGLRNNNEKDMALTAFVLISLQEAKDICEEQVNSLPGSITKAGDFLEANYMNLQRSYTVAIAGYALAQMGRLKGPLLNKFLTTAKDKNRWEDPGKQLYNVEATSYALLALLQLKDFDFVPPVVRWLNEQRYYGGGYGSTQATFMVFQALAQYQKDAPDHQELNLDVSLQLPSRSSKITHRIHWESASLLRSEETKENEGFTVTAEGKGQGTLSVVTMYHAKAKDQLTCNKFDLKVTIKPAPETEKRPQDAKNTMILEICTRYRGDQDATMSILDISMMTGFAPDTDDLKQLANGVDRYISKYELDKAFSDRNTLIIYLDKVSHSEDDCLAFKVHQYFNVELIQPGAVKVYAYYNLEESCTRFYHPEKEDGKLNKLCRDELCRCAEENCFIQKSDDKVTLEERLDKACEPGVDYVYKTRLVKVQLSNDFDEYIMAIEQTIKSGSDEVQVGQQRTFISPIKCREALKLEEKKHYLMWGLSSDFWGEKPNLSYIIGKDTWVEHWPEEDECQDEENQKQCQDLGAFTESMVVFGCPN

| Binder | inhibition of hemolysis IC50 [nM] |
| --- | --- |
| Ac-ICIWQDWGEHRCTEGK-NH2 (disulfide 2-12; SMILES CC[C@H](C)[C@H](NC(C)=O)C(=O)N[C@H]1CSSC[C@@H](C(=O)N[C@H](C(=O)N[C@@H](CCC(=O)O)C(=O)NCC(=O)N[C@@H](CCCCN)C(N)=O)[C@@H](C)O)NC(=O)[C@H](CCCNC(=N)N)NC(=O)[C@H](Cc2c[nH]cn2)NC(=O)[C@H](CCC(=O)O)NC(=O)CNC(=O)[C@H](Cc2c[nH]c3ccccc23)NC(=O)[C@H](CC(=O)O)NC(=O)[C@H](CCC(N)=O)NC(=O)[C@H](Cc2c[nH]c3ccccc23)NC(=O)[C@H]([C@@H](C)CC)NC1=O) [Compound 39] | < 100 |
| Ac-ICIWQDWGAHRCTGAES-NH2 (disulfide 2-12; SMILES CC[C@H](C)[C@H](NC(C)=O)C(=O)N[C@H]1CSSC[C@@H](C(=O)N[C@H](C(=O)NCC(=O)N[C@@H](C)C(=O)N[C@@H](CCC(=O)O)C(=O)N[C@@H](CO)C(N)=O)[C@@H](C)O)NC(=O)[C@H](CCCNC(=N)N)NC(=O)[C@H](Cc2c[nH]cn2)NC(=O)[C@H](C)NC(=O)CNC(=O)[C@H](Cc2c[nH]c3ccccc23)NC(=O)[C@H](CC(=O)O)NC(=O)[C@H](CCC(N)=O)NC(=O)[C@H](Cc2c[nH]c3ccccc23)NC(=O)[C@H]([C@@H](C)CC)NC1=O) [Compound 47] | < 100 |
| Ac-SAICIWQDWGEHRCTEG-NH2 (disulfide 4-14; SMILES CC[C@H](C)[C@H](NC(=O)[C@H](C)NC(=O)[C@H](CO)NC(C)=O)C(=O)N[C@H]1CSSC[C@@H](C(=O)N[C@H](C(=O)N[C@@H](CCC(=O)O)C(=O)NCC(N)=O)[C@@H](C)O)NC(=O)[C@H](CCCNC(=N)N)NC(=O)[C@H](Cc2c[nH]cn2)NC(=O)[C@H](CCC(=O)O)NC(=O)CNC(=O)[C@H](Cc2c[nH]c3ccccc23)NC(=O)[C@H](CC(=O)O)NC(=O)[C@H](CCC(N)=O)NC(=O)[C@H](Cc2c[nH]c3ccccc23)NC(=O)[C@H]([C@@H](C)CC)NC1=O) [Compound 42] | < 250 |
| Ac-ICI[Trp(1-Me)]QDWGEHRCTGAES-NH2 (disulfide 2-12; SMILES CC[C@H](C)[C@H](NC(C)=O)C(=O)N[C@H]1CSSC[C@@H](C(=O)N[C@H](C(=O)NCC(=O)N[C@@H](C)C(=O)N[C@@H](CCC(=O)O)C(=O)N[C@@H](CO)C(N)=O)[C@@H](C)O)NC(=O)[C@H](CCCNC(=N)N)NC(=O)[C@H](Cc2c[nH]cn2)NC(=O)[C@H](CCC(=O)O)NC(=O)CNC(=O)[C@H](Cc2c[nH]c3ccccc23)NC(=O)[C@H](CC(=O)O)NC(=O)[C@H](CCC(N)=O)NC(=O)[C@H](Cc2cn(C)c3ccccc23)NC(=O)[C@H]([C@@H](C)CC)NC1=O) [Compound 51] | < 100 |
| Ac-EGSAICIWQDWGEHRC[Sar]EGE-NH2 (disulfide 6-16; SMILES CC[C@H](C)[C@H](NC(=O)[C@H](C)NC(=O)[C@H](CO)NC(=O)CNC(=O)[C@H](CCC(=O)O)NC(C)=O)C(=O)N[C@H]1CSSC[C@@H](C(=O)N(C)CC(=O)N[C@@H](CCC(=O)O)C(=O)NCC(=O)N[C@@H](CCC(=O)O)C(N)=O)NC(=O)[C@H](CCCNC(=N)N)NC(=O)[C@H](Cc2c[nH]cn2)NC(=O)[C@H](CCC(=O)O)NC(=O)CNC(=O)[C@H](Cc2c[nH]c3ccccc23)NC(=O)[C@H](CC(=O)O)NC(=O)[C@H](CCC(N)=O)NC(=O)[C@H](Cc2c[nH]c3ccccc23)NC(=O)[C@H]([C@@H](C)CC)NC1=O) [Compound 44] | < 250 |
| Ac-ESSAICIWQDWGAHRCT-NH2 (disulfide 6-16; SMILES CC[C@H](C)[C@H](NC(=O)[C@H](C)NC(=O)[C@H](CO)NC(=O)[C@H](CO)NC(=O)[C@H](CCC(=O)O)NC(C)=O)C(=O)N[C@H]1CSSC[C@@H](C(=O)N[C@H](C(N)=O)[C@@H](C)O)NC(=O)[C@H](CCCNC(=N)N)NC(=O)[C@H](Cc2c[nH]cn2)NC(=O)[C@H](C)NC(=O)CNC(=O)[C@H](Cc2c[nH]c3ccccc23)NC(=O)[C@H](CC(=O)O)NC(=O)[C@H](CCC(N)=O)NC(=O)[C@H](Cc2c[nH]c3ccccc23)NC(=O)[C@H]([C@@H](C)CC)NC1=O) [Compound 46] | < 100 |
| Ac-SAICIWQDWGEHRC[Sar]E-NH2 (disulfide 4-14; SMILES CC[C@H](C)[C@H](NC(=O)[C@H](C)NC(=O)[C@H](CO)NC(C)=O)C(=O)N[C@H]1CSSC[C@@H](C(=O)N(C)CC(=O)N[C@@H](CCC(=O)O)C(N)=O)NC(=O)[C@H](CCCNC(=N)N)NC(=O)[C@H](Cc2c[nH]cn2)NC(=O)[C@H](CCC(=O)O)NC(=O)CNC(=O)[C@H](Cc2c[nH]c3ccccc23)NC(=O)[C@H](CC(=O)O)NC(=O)[C@H](CCC(N)=O)NC(=O)[C@H](Cc2c[nH]c3ccccc23)NC(=O)[C@H]([C@@H](C)CC)NC1=O) [Compound 41] | < 250 |
| Ac-EKGICIWQDWGEHRCTEKP-NH2 (disulfide 5-15; SMILES CC[C@H](C)[C@H](NC(=O)CNC(=O)[C@H](CCCCN)NC(=O)[C@H](CCC(=O)O)NC(C)=O)C(=O)N[C@H]1CSSC[C@@H](C(=O)N[C@H](C(=O)N[C@@H](CCC(=O)O)C(=O)N[C@@H](CCCCN)C(=O)N2CCC[C@H]2C(N)=O)[C@@H](C)O)NC(=O)[C@H](CCCNC(=N)N)NC(=O)[C@H](Cc2c[nH]cn2)NC(=O)[C@H](CCC(=O)O)NC(=O)CNC(=O)[C@H](Cc2c[nH]c3ccccc23)NC(=O)[C@H](CC(=O)O)NC(=O)[C@H](CCC(N)=O)NC(=O)[C@H](Cc2c[nH]c3ccccc23)NC(=O)[C@H]([C@@H](C)CC)NC1=O) [Compound 38] | < 250 |
| Ac-EGEICIWQDWGEHRCEGE-NH2 (disulfide 5-15; SMILES CC[C@H](C)[C@@H]1NC(=O)[C@@H](NC(=O)[C@@H](NC(=O)[C@H](CCC(=O)O)NC(=O)CNC(=O)[C@H](CCC(=O)O)NC(C)=O)[C@@H](C)CC)CSSC[C@@H](C(=O)N[C@@H](CCC(=O)O)C(=O)NCC(=O)N[C@@H](CCC(=O)O)C(N)=O)NC(=O)[C@H](CCCNC(=N)N)NC(=O)[C@H](Cc2c[nH]cn2)NC(=O)[C@H](CCC(=O)O)NC(=O)CNC(=O)[C@H](Cc2c[nH]c3ccccc23)NC(=O)[C@H](CC(=O)O)NC(=O)[C@H](CCC(N)=O)NC(=O)[C@H](Cc2c[nH]c3ccccc23)NC1=O) [Compound 35] | < 500 |
| Ac-EICIWQDWGEHRCTEGE-NH2 (disulfide 3-13; SMILES CC[C@H](C)[C@@H]1NC(=O)[C@@H](NC(=O)[C@@H](NC(=O)[C@H](CCC(=O)O)NC(C)=O)[C@@H](C)CC)CSSC[C@@H](C(=O)N[C@H](C(=O)N[C@@H](CCC(=O)O)C(=O)NCC(=O)N[C@@H](CCC(=O)O)C(N)=O)[C@@H](C)O)NC(=O)[C@H](CCCNC(=N)N)NC(=O)[C@H](Cc2c[nH]cn2)NC(=O)[C@H](CCC(=O)O)NC(=O)CNC(=O)[C@H](Cc2c[nH]c3ccccc23)NC(=O)[C@H](CC(=O)O)NC(=O)[C@H](CCC(N)=O)NC(=O)[C@H](Cc2c[nH]c3ccccc23)NC1=O) [Compound 34] | < 250 |
| Ac-KEKICIWQDWGEHRCTEKE-NH2 (disulfide 5-15; SMILES CC[C@H](C)[C@@H]1NC(=O)[C@@H](NC(=O)[C@@H](NC(=O)[C@H](CCCCN)NC(=O)[C@H](CCC(=O)O)NC(=O)[C@H](CCCCN)NC(C)=O)[C@@H](C)CC)CSSC[C@@H](C(=O)N[C@H](C(=O)N[C@@H](CCC(=O)O)C(=O)N[C@@H](CCCCN)C(=O)N[C@@H](CCC(=O)O)C(N)=O)[C@@H](C)O)NC(=O)[C@H](CCCNC(=N)N)NC(=O)[C@H](Cc2c[nH]cn2)NC(=O)[C@H](CCC(=O)O)NC(=O)CNC(=O)[C@H](Cc2c[nH]c3ccccc23)NC(=O)[C@H](CC(=O)O)NC(=O)[C@H](CCC(N)=O)NC(=O)[C@H](Cc2c[nH]c3ccccc23)NC1=O) [Compound 37] | < 250 |
| Ac-GSAICIWQDWGEHRC[Sar]E-NH2 (disulfide 5-15; SMILES CC[C@H](C)[C@H](NC(=O)[C@H](C)NC(=O)[C@H](CO)NC(=O)CNC(C)=O)C(=O)N[C@H]1CSSC[C@@H](C(=O)N(C)CC(=O)N[C@@H](CCC(=O)O)C(N)=O)NC(=O)[C@H](CCCNC(=N)N)NC(=O)[C@H](Cc2c[nH]cn2)NC(=O)[C@H](CCC(=O)O)NC(=O)CNC(=O)[C@H](Cc2c[nH]c3ccccc23)NC(=O)[C@H](CC(=O)O)NC(=O)[C@H](CCC(N)=O)NC(=O)[C@H](Cc2c[nH]c3ccccc23)NC(=O)[C@H]([C@@H](C)CC)NC1=O) [Compound 40] | < 250 |
| Ac-ESEICIWQDWGEHRCEGE-NH2 (disulfide 5-15; SMILES CC[C@H](C)[C@@H]1NC(=O)[C@@H](NC(=O)[C@@H](NC(=O)[C@H](CCC(=O)O)NC(=O)[C@H](CO)NC(=O)[C@H](CCC(=O)O)NC(C)=O)[C@@H](C)CC)CSSC[C@@H](C(=O)N[C@@H](CCC(=O)O)C(=O)NCC(=O)N[C@@H](CCC(=O)O)C(N)=O)NC(=O)[C@H](CCCNC(=N)N)NC(=O)[C@H](Cc2c[nH]cn2)NC(=O)[C@H](CCC(=O)O)NC(=O)CNC(=O)[C@H](Cc2c[nH]c3ccccc23)NC(=O)[C@H](CC(=O)O)NC(=O)[C@H](CCC(N)=O)NC(=O)[C@H](Cc2c[nH]c3ccccc23)NC1=O) [Compound 36] | < 250 |
| Ac-EGSAFCIWQDWGEHRC[Sar]E-NH2 (disulfide 6-16; SMILES CC[C@H](C)[C@@H]1NC(=O)[C@@H](NC(=O)[C@H](Cc2ccccc2)NC(=O)[C@H](C)NC(=O)[C@H](CO)NC(=O)CNC(=O)[C@H](CCC(=O)O)NC(C)=O)CSSC[C@@H](C(=O)N(C)CC(=O)N[C@@H](CCC(=O)O)C(N)=O)NC(=O)[C@H](CCCNC(=N)N)NC(=O)[C@H](Cc2c[nH]cn2)NC(=O)[C@H](CCC(=O)O)NC(=O)CNC(=O)[C@H](Cc2c[nH]c3ccccc23)NC(=O)[C@H](CC(=O)O)NC(=O)[C@H](CCC(N)=O)NC(=O)[C@H](Cc2c[nH]c3ccccc23)NC1=O) [Compound 45] | < 100 |
